In publication PMC11237084 (2024):

Target: Aβ(1-40) peptide, monomeric (UniProt P05067 672-711)
Assay: SPR

B1: anticalin H1GA (Aβ-anticalin) (designed binder)
chain: QDSTSDLIPAPPLSKVPLQQNFQDNQFHGKWYVVGAAGNVLLREDKDPLKMYATIYELKEDKSYNVTSVGFDDKKCLYKIRTFVPGSQPGEFTLGRIKSEPGGTSWLVRVVSTNYNQHAMVFFKEVAQNRETFNITLYGRTKELTSELKENFIRFSKSLGLPENHIVFPVPIDQCIDG
B1 gave a Kd of 0.54 nM.
